The text below walks through data of patent US20250223364A1 (DREN BIO, published 2025).

One assay addresses Human monocytes (human) (UniProt Q9BXN2). In words: cell binding; human monocytes.
In assay [1] the target is HEK-Blue hDectin-1a cells (UniProt Q9BXN2). In words: cell binding; HEK-Blue hDectin-1a cells.
Assay [2] has as its target HEK-Blue hDectin-1b cells (UniProt Q9BXN2). The experiment in a line: cell binding; HEK-Blue hDectin-1b cells.
A further assay concerns the target HEK293F hDectin-1a FL (UniProt Q9BXN2). The experiment in a line: cell binding; HEK293F hDectin-1a FL cells.
For assay [3], the target named is cynomolgus monkey Dectin-1 (cynomolgus monkey). In words: flow cytometry on cynomolgus monkey monocytes.
For assay [4], the target named is T1, Dectin-1-expressing HEK cells (human, UniProt Q9BXN2 1-247).
T1 chain: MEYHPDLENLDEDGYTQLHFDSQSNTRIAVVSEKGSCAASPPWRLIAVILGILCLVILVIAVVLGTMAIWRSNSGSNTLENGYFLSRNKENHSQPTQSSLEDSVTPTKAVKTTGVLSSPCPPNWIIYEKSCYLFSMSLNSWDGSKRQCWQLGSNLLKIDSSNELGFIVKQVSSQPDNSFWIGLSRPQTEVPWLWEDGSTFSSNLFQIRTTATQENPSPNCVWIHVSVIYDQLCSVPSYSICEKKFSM
The experiment in a line: flow cytometry; HEK cells.

Assay [5] deals with T2, cynomolgus monkey Dectin-1 (cynomolgus monkey, UniProt A0A2K5UXY6 35-281).
T2 construct: whole, on cells; also called cynomolgus Dectin-1; Dectin-1 on cynomolgus monkey monocytes
T2 sequence: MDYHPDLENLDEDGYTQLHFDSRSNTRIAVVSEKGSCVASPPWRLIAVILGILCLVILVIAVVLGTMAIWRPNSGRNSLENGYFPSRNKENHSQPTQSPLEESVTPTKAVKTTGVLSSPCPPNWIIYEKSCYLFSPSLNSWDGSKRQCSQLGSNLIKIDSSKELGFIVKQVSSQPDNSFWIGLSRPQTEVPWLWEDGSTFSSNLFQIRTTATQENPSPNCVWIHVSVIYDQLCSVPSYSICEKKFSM
In words: flow cytometry on cynomolgus monkey monocytes.

In assay [6] the target is T3, human Dectin-1 (isoform not given) (human, UniProt Q9BXN2 1-247).
T3 construct: whole, on cells; also called hDectin-1; Dectin-1 on human monocytes
T3 sequence (looked up): T1 chain
In words: flow cytometry on HEK 293 cells stably overexpressing human Dectin-1.

As for 15E2, the EC50 with Human monocytes (human) was 0.6 nM; in assay [1] it was 1.2 nM; in assay [2], 9.3 nM; with HEK293F hDectin-1a FL it was 1.4 nM. 15E2 commercial anti-Dectin-1 antibody yielded an EC50 in assay [3] of 14 nM. Same read-out and setting: with “259931 commercial anti-Dectin-1 antibody” the figure was 16 nM.

Turning to GE2, the EC50 with Human monocytes (human) is 1.4 nM; in assay [1], 1.9 nM; in assay [2], 12 nM; in the assay with HEK293F hDectin-1a FL, 2.4 nM.

B1: 2m24/RSV (bispecific antibody)
chain 1: QVQLVQSGAEVKKPGASVKVSCKSSGYTFTDYYIHWVRQAPGQGLEWMGWINPNSGDTNYAQKFQGRITMTRDTSISTAYLELSRLRSDDTAVFYCARNSGSYSFGYWGQGTLVTVSS
chain 2: DIQMTQSPSSVSASVGDRVTITCRASQGISSWLAWYQQKPGKAPKLLIFGASSLQSGVPSRFSGSGSGTDFTLTVSSLQPEDFATYYCQQAYSFPFTFGPGTKVDIE
chain 3: QVTLRESGPALVKPTQTLTLTCTFSGFSLSTSGMSVGWIRQPPGKALEWLADIWWDDKKDYNPSLKSRLTISKDTSANQVVLKVTNMDPADTATYYCARSMITNWYFDVWGAGTTVTVSS
chain 4: DIQMTQSPSTLSASVGDRVTITCKCQLSVGYMHWYQQKPGKAPKLLIYDTSKLASGVPSRFSGSGSGTAFTLTISSLQPDDFATYYCFQGSGYPFTFGGGTKLEIK
Consider B1, for which the EC50 in assay [4] is 1.6 nM.

B2: anti-human Dectin-1 antibody clone 2M24 (mIgG1) (antibody, V domains shown)
VH: B1 chain 1
VL: B1 chain 2
As to B2, the concentration for a half-maximal effect (EC50) in assay [5] was 0.3 nM.

B3: Fab 2M24-mSA fusion protein (Fab, V domains shown)
VH: B1 chain 1
VL: B1 chain 2
In assay [6], B3 yielded a half-maximal effective concentration (EC50) of 1.45 nM.
